# Laboratory results taken from patent publication US20200317768A1 (published 2020).
# T1: human FcγRIIaH extracellular domain, His-tagged (human, UniProt P12318 34-217)
# T1 construct: also called human FcγRIIa (type H); FcgRIIaH; not shown: C-terminal His-tag
# T1 sequence: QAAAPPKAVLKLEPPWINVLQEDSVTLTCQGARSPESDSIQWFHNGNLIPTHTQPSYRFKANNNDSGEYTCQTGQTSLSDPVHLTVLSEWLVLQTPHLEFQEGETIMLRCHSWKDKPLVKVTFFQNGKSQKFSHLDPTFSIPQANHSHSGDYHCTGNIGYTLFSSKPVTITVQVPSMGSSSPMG
# T2: human FcγRIIaR extracellular domain, His-tagged (human, UniProt P12318 34-217)
# T2 construct: also called human FcγRIIa (type R); FcgRIIaR; not shown: C-terminal His-tag
# T2 chain: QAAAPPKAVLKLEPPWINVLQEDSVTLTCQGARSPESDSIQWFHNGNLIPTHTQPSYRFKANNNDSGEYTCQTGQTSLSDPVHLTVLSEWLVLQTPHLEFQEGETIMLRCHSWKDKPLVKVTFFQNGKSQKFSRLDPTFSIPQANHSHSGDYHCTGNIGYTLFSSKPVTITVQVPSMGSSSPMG
# T3: cynomolgus monkey FcγRIIa2 extracellular domain, His-tagged (cynomolgus monkey)
# T3 construct: also called cyno FcγRIIa2; cynoFcgRIIa2; not shown: C-terminal His-tag
# T3 chain: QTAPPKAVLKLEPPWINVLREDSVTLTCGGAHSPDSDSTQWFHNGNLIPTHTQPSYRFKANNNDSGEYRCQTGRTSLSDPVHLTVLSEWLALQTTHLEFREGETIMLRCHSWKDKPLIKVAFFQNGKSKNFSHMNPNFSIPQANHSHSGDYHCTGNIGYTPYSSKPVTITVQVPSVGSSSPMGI
# T4: cynomolgus monkey FcγRIIIaS extracellular domain, His-tagged (cynomolgus monkey, UniProt Q8SPW2 21-206 at identity 1.00))
# T4 construct: also called cyno FcγRIIIaS; cynoFcγRIIIaS; not shown: C-terminal His-tag
# T4 chain: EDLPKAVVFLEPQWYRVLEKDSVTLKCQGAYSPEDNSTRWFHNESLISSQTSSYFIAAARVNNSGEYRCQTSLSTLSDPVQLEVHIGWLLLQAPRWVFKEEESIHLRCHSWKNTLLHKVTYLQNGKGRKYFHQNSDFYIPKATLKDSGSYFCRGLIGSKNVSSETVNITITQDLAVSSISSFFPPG
# T5: cynomolgus monkey FcγRIIb extracellular domain, His-tagged (cynomolgus monkey)
# T5 construct: also called cyno FcγRIIb; cynoFcγRIIb; not shown: C-terminal His-tag
# T5 chain: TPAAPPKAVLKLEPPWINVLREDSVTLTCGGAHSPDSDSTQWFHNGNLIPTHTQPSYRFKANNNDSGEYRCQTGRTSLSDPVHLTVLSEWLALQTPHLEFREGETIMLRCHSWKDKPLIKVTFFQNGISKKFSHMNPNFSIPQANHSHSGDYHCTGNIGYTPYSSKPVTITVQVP
# T6: human FcγRIIb extracellular domain, His-tagged (human, UniProt P31994 43-217)
# T6 construct: also called FcgRIIb (human); not shown: C-terminal His-tag
# T6 sequence: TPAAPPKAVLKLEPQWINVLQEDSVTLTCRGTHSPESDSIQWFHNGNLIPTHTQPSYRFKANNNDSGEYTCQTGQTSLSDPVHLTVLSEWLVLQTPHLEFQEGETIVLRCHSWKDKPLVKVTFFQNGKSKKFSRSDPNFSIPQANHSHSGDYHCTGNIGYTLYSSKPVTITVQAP
# T7: cynomolgus monkey FcγRIIa3 extracellular domain, His-tagged (cynomolgus monkey)
# T7 construct: also called cyno FcγRIIa3; cynoFcgRIIa3; not shown: C-terminal His-tag
# T7 chain: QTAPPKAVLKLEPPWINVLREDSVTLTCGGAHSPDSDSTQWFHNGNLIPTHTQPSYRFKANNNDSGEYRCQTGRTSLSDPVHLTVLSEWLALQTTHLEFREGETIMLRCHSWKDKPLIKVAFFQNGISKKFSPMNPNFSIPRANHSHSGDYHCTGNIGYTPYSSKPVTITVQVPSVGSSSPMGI
# T8: cynomolgus monkey FcγRIIa1 extracellular domain, His-tagged (cynomolgus monkey)
# T8 construct: also called cyno FcγRIIa1; cynoFcgRIIa1; not shown: C-terminal His-tag
# T8 chain: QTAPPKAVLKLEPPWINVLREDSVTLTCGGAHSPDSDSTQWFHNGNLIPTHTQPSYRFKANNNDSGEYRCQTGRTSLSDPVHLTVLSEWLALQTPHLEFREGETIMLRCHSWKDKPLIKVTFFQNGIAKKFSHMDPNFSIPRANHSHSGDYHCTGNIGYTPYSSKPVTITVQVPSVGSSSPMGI
# What was measured:
# Assay in all cases: SPR (BIACORE); KD of SG1 divided by KD of variant;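 further: relative to parent M103205H795-SG1 carrying the SG1 human heavy chain constant region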
# [1] = biological target: T1, human FcγRIIaH extracellular domain, …
# Procedure: (§1) The kinetic analysis of interactions between these antibodies and FcγR was carried out using BIACORE® T200 or BIACORE® 4000 (GE Healthcare). HBS-EP+ (GE Healthcare) was used as the running buffer, and the measurement temperature was set to 25° C. A chip produced by immobilizing Protein A. Protein A/G or mouse anti-human IgG kappa light chain (BD Biosciences) onto a Series S Sensor Chip CM4 or CM5 (GE Healthcare) by the amine-coupling method was used. […] After the measurement, the antibody captured on the chip was washed off by allowing reaction with 10 mM glycine-HCl, pH1.5 and 25 mM NaOH so that the chip was regenerated and used repeatedly. The sensorgrams obtained as measurement results were analyzed by the 1:1 Langmuir binding model using the BIACORE® Evaluation Software to calculate the binding rate constant ka (L/mol/s) and dissociation rate constant kd (l/s), and the dissociation constant KD (mol/L) was calculated from these values. […] Regarding such interactions, KD values were calculated using the following 1:1 binding model described in BIACORE® T100 Software Handbook BR1006-48 Edition AE.
# [2] = biological target: T2, human FcγRIIaR extracellular domain, …
# Procedure: as §1
# [3] = biological target: T9, human FcγRIIIaV extracellular domain, His-tagged (human, UniProt P08637 17-208)
# T9 construct: also called FcgRIIIaV; not shown: C-terminal His-tag
# Procedure: as §1
# [4] = biological target: T3, cynomolgus monkey FcγRIIa2 …
# Procedure: as §1
# [5] = biological target: T4, cynomolgus monkey FcγRIIIaS …
# Procedure: as §1
# [6] = biological target: T5, cynomolgus monkey FcγRIIb extracellular …
# Procedure: as §1
# [7] = biological target: T6, human FcγRIIb extracellular domain, …
# Procedure: as §1
# [8] = biological target: T7, cynomolgus monkey FcγRIIa3 …
# Procedure: as §1
# [9] = biological target: T8, cynomolgus monkey FcγRIIa1 …
# Procedure: as §1
# T9 sequence (P08637 17-208 F176V): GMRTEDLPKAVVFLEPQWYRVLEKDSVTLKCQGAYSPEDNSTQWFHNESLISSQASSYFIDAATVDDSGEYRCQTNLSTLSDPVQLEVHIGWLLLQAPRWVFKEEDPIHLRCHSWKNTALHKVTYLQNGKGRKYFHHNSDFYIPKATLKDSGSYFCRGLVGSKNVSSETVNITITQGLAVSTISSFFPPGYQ
KD fold (SG1 = 1) [1] [fold],KD fold (SG1 = 1) [2] [fold],KD fold (SG1 = 1) [3] [fold],KD fold (SG1 = 1) [4] [fold],KD fold (SG1 = 1) [5] [fold],KD fold (SG1 = 1) [6] [fold],KD fold (SG1 = 1) [7] [fold],KD fold (SG1 = 1) [8] [fold],KD fold (SG1 = 1) [9] [fold],Binder
1.8,2,0.1,1.1,0.1,1.6,1.8,2.3,0.6,"M103205H795-MY459/M103202L889-SK1 (antibody, human IgG1, kappa, copies: 2 + 2) heavy: QVTLKESGPVLVKPTETLTLTCTVSGIDLSHDDISWVRQAPGKGLEWVGIISYAGSTYYASWAKGRLTISKDTSKNQVVLTMTNMDPVDTATYYCARGVPAYSHGGDLWGQGTLVTVSSASTKGPSVFPLAPSSKSTSGGTAALGCLVKDYFPEPVTVSWNSGALTSGVHTFPAVLQSSGLYSLSSVVTVPSSSLGTQTYICNVNHKPSNTKVDKKVEPKSCDKTHTCPPCPDPELLTGPSVFLFPPKPKDTLMISRTPEVTCVVVDVSDEDPEVKFNWYVDGVEVHNAKTKPREEQYNSTYRVVSVLTVLHQDWLNGKEYKCKVSNKALPKPIEKTISKAKGQPREPQVYTLPPSREEMTKNQVSLTCLVKGFYPSDIAVEWESNGQPENNYKTTPPVLDSDGSFFLYSKLTVDKSRWQQGNVFSCSVMHEALHNHYTQKSLSLSP light: DIVMTQSPATLSLSPGERATLSCTSSQSVYHANWLSWFQQKPGQPPKLLIYWASTLAYGVPSRFSGSGSGTDFTLTISSLQPEDAATYYCAGGYGGGRYAFGQGTKVEIKRTVAAPSVFIFPPSDEQLKSGTASVVCLLNNFYPREAKVQWKVDNALQSGNSQESVTEQDSKDSTYSLSSTLTLSKADYEKHKVYACEVTHQGLSSPVTKSFNRGEC"
2.9,2.2,0.3,3.2,0.2,3.8,2.4,4,1.7,"M103205H795-MY462/M103202L889-SK1 (antibody, human IgG1, kappa, copies: 2 + 2) heavy: QVTLKESGPVLVKPTETLTLTCTVSGIDLSHDDISWVRQAPGKGLEWVGIISYAGSTYYASWAKGRLTISKDTSKNQVVLTMTNMDPVDTATYYCARGVPAYSHGGDLWGQGTLVTVSSASTKGPSVFPLAPSSKSTSGGTAALGCLVKDYFPEPVTVSWNSGALTSGVHTFPAVLQSSGLYSLSSVVTVPSSSLGTQTYICNVNHKPSNTKVDKKVEPKSCDKTHTCPPCPGPELLTGPSVFLFPPKPKDTLMISRTPEVTCVVVDVSDEDPEVKFNWYVDGVEVHNAKTKPREEQYNSTYRVVSVLTVLHQDWLNGKEYKCKVSNKALPKPIEKTISKAKGQPREPQVYTLPPSREEMTKNQVSLTCLVKGFYPSDIAVEWESNGQPENNYKTTPPVLDSDGSFFLYSKLTVDKSRWQQGNVFSCSVMHEALHNHYTQKSLSLSP light: DIVMTQSPATLSLSPGERATLSCTSSQSVYHANWLSWFQQKPGQPPKLLIYWASTLAYGVPSRFSGSGSGTDFTLTISSLQPEDAATYYCAGGYGGGRYAFGQGTKVEIKRTVAAPSVFIFPPSDEQLKSGTASVVCLLNNFYPREAKVQWKVDNALQSGNSQESVTEQDSKDSTYSLSSTLTLSKADYEKHKVYACEVTHQGLSSPVTKSFNRGEC"
2.7,2,0.1,1.6,0.1,2.3,1.9,3.1,1,"M103205H795-MY460/M103202L889-SK1 (antibody, human IgG1, kappa, copies: 2 + 2) heavy: QVTLKESGPVLVKPTETLTLTCTVSGIDLSHDDISWVRQAPGKGLEWVGIISYAGSTYYASWAKGRLTISKDTSKNQVVLTMTNMDPVDTATYYCARGVPAYSHGGDLWGQGTLVTVSSASTKGPSVFPLAPSSKSTSGGTAALGCLVKDYFPEPVTVSWNSGALTSGVHTFPAVLQSSGLYSLSSVVTVPSSSLGTQTYICNVNHKPSNTKVDKKVEPKSCDKTHTCPPCPEPELLTGPSVFLFPPKPKDTLMISRTPEVTCVVVDVSDEDPEVKFNWYVDGVEVHNAKTKPREEQYNSTYRVVSVLTVLHQDWLNGKEYKCKVSNKALPKPIEKTISKAKGQPREPQVYTLPPSREEMTKNQVSLTCLVKGFYPSDIAVEWESNGQPENNYKTTPPVLDSDGSFFLYSKLTVDKSRWQQGNVFSCSVMHEALHNHYTQKSLSLSP light: DIVMTQSPATLSLSPGERATLSCTSSQSVYHANWLSWFQQKPGQPPKLLIYWASTLAYGVPSRFSGSGSGTDFTLTISSLQPEDAATYYCAGGYGGGRYAFGQGTKVEIKRTVAAPSVFIFPPSDEQLKSGTASVVCLLNNFYPREAKVQWKVDNALQSGNSQESVTEQDSKDSTYSLSSTLTLSKADYEKHKVYACEVTHQGLSSPVTKSFNRGEC"
3.8,3.2,0.3,2.5,0.2,3.8,2.7,4.9,1.8,"M103205H795-MY461/M103202L889-SK1 (antibody, human IgG1, kappa, copies: 2 + 2) heavy: QVTLKESGPVLVKPTETLTLTCTVSGIDLSHDDISWVRQAPGKGLEWVGIISYAGSTYYASWAKGRLTISKDTSKNQVVLTMTNMDPVDTATYYCARGVPAYSHGGDLWGQGTLVTVSSASTKGPSVFPLAPSSKSTSGGTAALGCLVKDYFPEPVTVSWNSGALTSGVHTFPAVLQSSGLYSLSSVVTVPSSSLGTQTYICNVNHKPSNTKVDKKVEPKSCDKTHTCPPCPFPELLTGPSVFLFPPKPKDTLMISRTPEVTCVVVDVSDEDPEVKFNWYVDGVEVHNAKTKPREEQYNSTYRVVSVLTVLHQDWLNGKEYKCKVSNKALPKPIEKTISKAKGQPREPQVYTLPPSREEMTKNQVSLTCLVKGFYPSDIAVEWESNGQPENNYKTTPPVLDSDGSFFLYSKLTVDKSRWQQGNVFSCSVMHEALHNHYTQKSLSLSP light: DIVMTQSPATLSLSPGERATLSCTSSQSVYHANWLSWFQQKPGQPPKLLIYWASTLAYGVPSRFSGSGSGTDFTLTISSLQPEDAATYYCAGGYGGGRYAFGQGTKVEIKRTVAAPSVFIFPPSDEQLKSGTASVVCLLNNFYPREAKVQWKVDNALQSGNSQESVTEQDSKDSTYSLSSTLTLSKADYEKHKVYACEVTHQGLSSPVTKSFNRGEC"
